Assay results: the supplement of paper PMC12338614

B1: library; numbered along this chain (parent)
chain: MEVVDPQQLGMFTEGELMSVGMDTFIHRIDSTEVIYQPRRKRAKLIGKYLMGDLLGEGSYGKVKEVLDSETLCRRAVKILKKKKLRRIPNGEANVKKEIQLLRRLRHKNVIQLVDVLYNEEKQKMYMVMEYCVCGMQEMLDSVPEKRFPVCQAHGYFCQLIDGLEYLHSQGIVHKDIKPGNLLLTTGGTLKISDLGVAEALHPFAADDTCRTSQGSPAFQPPEIANGLDTFSGFKVDIWSAGVTLYNITTGLYPFEGDNIYKLFENIGKGSYAIPGDCGPPLSDLLKGMLEYEPAKRFSIRQIRQHSWFRKKHPPAEAPVPIPPSPDTKDRWRSMTVVPYLEDLHGADEDEDLFDIEDDIIYTQDFTVPGQVPEEEASHNGQRRGLPKAVCMNGTEAAQLSTKSRAEGRAPNPARKACSASSKIRRLSACKQQ

Variants of: B1
Test: STK11 functional score (HeLa growth suppression), rescaled enrichment; synonymous median = 1, nonsense median = 0 (normalised score)
Conditions: with HeLa; variant type: missense
Method in brief: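 In HeLa, Bxb1 integrated POPCode codon-randomised libraries of codon-optimised STK11 at an AAVS1 landing pad; three regions were each transfected three times. Integrants, marked as BFP-negative and mCherry-positive, were FACS-sorted 4–5 days after electroporation and expanded for about two weeks before tiled gDNA amplicons were sequenced on NextSeq (~2 million reads per tile). Each functional score is a post/pre-selection log ratio corrected to wild type, rescaled to the synonymous and nonsense medians, and merged across codons and replicate transfections, with error estimated by bootstrapping.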

STK11 functional score of substitutions, site by site:
Q371: C 1.36 | W 0.748 | S 1.32 | H 1.15 | I 1.52 | E 1.26 | R 1.55 | Y 1.04 | G 1.03 | F 1.12 | L 1.44 | A 1.6 | M 1.46 | V 1.49 | D 1.43 | P 1.3
E374: R 1.61 | A 0.915 | I 1.46 | S 1.46 | L 1.2 | G 1.12 | T 1.52 | W 1.55 | Y 1.29 | Q 0.822 | P 1.42 | H 1.06 | K 1.47 | V 0.836 | D 0.971 | C 1.51 | F 1.33
G370: F 1.5 | W 1.41 | P 1.59 | D 1.24 | L 1.42 | S 1.52 | Q 1.55 | A 1.21 | R 1.16 | I 1.6 | E 1.43 | V 0.706
D365: N 0.613 | S 1.51 | L 1.27 | I 1.47 | V 1.14 | R 1.61 | M 1.59 | P 1.56 | G 1.55 | H 1.34 | W 1.32 | Y 1.38
F366: A 0.753 | C 1.09 | E 1.6 | D 1.6 | L 1.16 | P 1.62 | V 1.42 | I 1.08 | M 1.48 | R 1.52 | G 1.55 | W 1.58 | Y 1.24 | S 1.58
V372: H 1.61 | A 1.48 | S 1.44 | N 1.54 | Y 1.48 | M 0.74 | L 1.4 | E 1.23 | Q 1.49 | R 1.42 | T 1.5 | P 1.48 | F 1.12 | K 1.6 | D 1.53 | W 1.09 | G 1.09
E375: P 1.53 | K 1.56 | Q 1.12 | V 1.27 | S 1.39 | N 1.47 | H 1.24 | T 0.94 | F 1.29 | I 1.59 | L 1.04 | A 1.13 | C 1.31 | G 1.49 | R 1.46 | D 1.58
P373: D 1.58 | E 1.51 | A 1.08 | V 0.868 | T 1.11 | L 1.13 | I 1.31 | W 1.6 | C 1.32 | Q 1.55 | N 1.59 | M 1.56 | G 1.53 | H 1.49 | S 1.44 | R 0.782 | F 1.26
P369: S 1.51 | C 1.31 | W 1.49 | D 1.61 | K 1.42 | Y 1.41 | Q 1.43 | A 1.43 | L 1.13 | H 0.727 | T 1.53 | F 1.26 | V 1.21 | G 1.56 | I 1.21 | R 1.44
T367: S 1.51 | A 1.39 | R 1.32 | I 1.38 | L 1.46 | P 1.41 | K 0.53 | W 1.4 | F 1.36 | C 1.4 | G 1.6 | Y 1.54 | V 1.58 | E 1.5
V368: H 1.08 | I 1.53 | F 0.859 | R 0.87 | D 1.53 | T 1.56 | Q 0.833 | P 1.46 | E 1.42 | C 1.58 | G 1.38 | A 1.36 | L 1.35 | S 1.1 | Y 1.54 | W 0.786
